The record followed here is publication doi:10.1101/2024.11.03.621705 (bioRxiv, 2024).

This series concerns the molecule itself. The series can be described thus: cryo-EM structure.

B1: mouse TRPC5 with a 210-amino-acid C-terminal truncation, with N-terminal 3xFlag tag and MBP (recombinant plasmid FMC5) (domain or fragment, UniProt Q9QX29 1-765, looked up)
chain: MAQLYYKKVNYSPYRDRIPLQIVRAETELSAEEKAFLSAVEKGDYATVKQALQEAEIYYNVNINCMDPLGRSALLIAIENENLEIMELLLNHSVYVGDALLYAIRKEVVGAVELLLSYRKPSGEKQVPTLMMDTQFSEFTPDITPIMLAAHTNNYEIIKLLVQKRVTIPRPHQIRCNCVECVSSSEVDSLRHSRSRLNIYKALASPSLIALSSEDPILTAFRLGWELKELSKVENEFKAEYEELSQQCKLFAKDLLDQARSSRELEIILNHRDDHSEELDPQKYHDLAKLKVAIKYHQKEFVAQPNCQQLLATLWYDGFPGWRRKHWVVKLLTCMTIGFLFPMLSIAYLISPRSNLGLFIKKPFIKFICHTASYLTFLFMLLLASQHIVRTDLHVQGPPPTVVEWMILPWVLGFIWGEIKEMWDGGFTEYIHDWWNLMDFAMNSLYLATISLKIVAYVKYNGSRPREEWEMWHPTLIAEALFAISNILSSLRLISLFTANSHLGPLQISLGRMLLDILKFLFIYCLVLLAFANGLNQLYFYYETRAIDEPNNCKGIRCEKQNNAFSTLFETLQSLFWSVFGLLNLYVTNVKARHEFTEFVGATMFGTYNVISLVVLLNMLIAMMNNSYQLIADHADIEWKFARTKLWMSYFDEGGTLPPPFNIIPSPKSFLYLGNWFNNTFCPKRDPDGRRRRHNLRSFTERHADSLIQNQHYQEVIRNLVKRYVAAMIRNSKTNEGLTEENFKELKQDISSFRYEVLDLLGNRK
As for B1, the binding result was “binds”.
